Consider 12 molecules from patent US20220402983A1 (Janssen / Centocor, published 2022).

*1 amine or outer side, *2 acyl side, *3 side chain or, on linkers, in order; H or OH if unused. Bridges are numbered along the chain shown (N, C = ends). Where no end group is shown, it is not given here. [ ]: non-standard residue; d: D form. The star is where a group is joined. Phe(4-OMe) = COc1ccc(C[C@H](N[*:1])C(=O)[*:2])cc1; Trp(7-Me) = Cc1cccc2c(C[C@H](N)C(=O)O)c[nH]c12; 2Nal = N[C@@H](Cc1ccc2ccccc2c1)C(=O)O; Propanoyl(3,3,3-F3) = O=C(CC(F)(F)F)*; AEF = NCCOc1ccc(C[C@H](N)C(=O)O)cc1; αMeF = C[C@](N)(Cc1ccccc1)C(=O)O; Pen = CC(C)(S)[C@H](N)C(=O)O; αMeK = C[C@](N)(CCCCN)C(=O)O; Thp = NC1(C(=O)O)CCOCC1; Abu = CC[C@H](N)C(=O)O; Propionyl = CCC(=O)*

The target of experiment [1] is T1, human IL-23R (interleukin-23 receptor) (human, UniProt Q5VWK5 24-629).
T1 sequence (looked up): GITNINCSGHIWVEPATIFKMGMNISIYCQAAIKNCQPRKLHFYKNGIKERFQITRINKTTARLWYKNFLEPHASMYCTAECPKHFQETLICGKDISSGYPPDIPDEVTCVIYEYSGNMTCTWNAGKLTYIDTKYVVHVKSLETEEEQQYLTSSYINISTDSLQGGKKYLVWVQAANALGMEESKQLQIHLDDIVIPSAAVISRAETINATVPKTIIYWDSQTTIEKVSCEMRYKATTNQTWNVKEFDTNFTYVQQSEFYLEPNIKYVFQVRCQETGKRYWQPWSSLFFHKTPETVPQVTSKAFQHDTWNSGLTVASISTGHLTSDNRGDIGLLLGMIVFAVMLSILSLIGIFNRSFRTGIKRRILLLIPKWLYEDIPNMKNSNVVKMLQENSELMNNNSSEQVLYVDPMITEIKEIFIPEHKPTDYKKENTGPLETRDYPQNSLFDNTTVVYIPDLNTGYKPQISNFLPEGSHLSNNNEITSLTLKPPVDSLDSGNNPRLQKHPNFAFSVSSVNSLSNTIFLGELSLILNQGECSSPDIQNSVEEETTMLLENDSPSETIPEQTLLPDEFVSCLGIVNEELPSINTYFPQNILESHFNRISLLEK
As to the kind of experiment: cell-based or functional assay.

In experiment [2] the target is T1, human IL-23R (interleukin-23 receptor). The experiment is described as follows: cell-based or functional assay. This is another data set of the same source.

B1: Compound No. 3 (peptide)
peptide: Propionyl-[dR][Pen]QTWQ[Pen][AEF][2Nal][Thp]EN[αMeF]-NH2
modifications: disulfide 2-7
SMILES: CCC(=O)N[C@H](CCCNC(=N)N)C(=O)N[C@@H]1C(=O)N[C@@H](CCC(N)=O)C(=O)N[C@@H]([C@@H](C)O)C(=O)N[C@@H](Cc2c[nH]c3ccccc23)C(=O)N[C@@H](CCC(N)=O)C(=O)N[C@H](C(=O)N[C@@H](Cc2ccc(OCCN)cc2)C(=O)N[C@@H](Cc2ccc3ccccc3c2)C(=O)NC2(C(=O)N[C@@H](CCC(=O)O)C(=O)N[C@@H](CC(N)=O)C(=O)N[C@@](C)(Cc3ccccc3)C(N)=O)CCOCC2)C(C)(C)SSC1(C)C
For the molecule B1, in experiment [1], the “PBMC pSTAT3 IC50 (nM)” value worked out at 40 nM and the “pStat3 HTRF (nM), IC50, DB cells IL23R pSTAT3 cell assay” value (from here on “pStat3 HTRF (nM), IC50”) was 2.31 nM. In addition, in experiment [2], the “NK Cell Assay (nM), IC50, IFN-gamma after IL-23 and IL-18” value (“NK Cell Assay (nM), IC50, IFN-gamma” below) was 20.1 nM.

B2: Compound No. 92 (peptide)
peptide: Ac-[dR][Pen]NT[Trp(7-Me)]K(Ac)[Pen][AEF][2Nal][Thp]EN[Thp]-NH2
modifications: disulfide 2-7
SMILES: CC(=O)NCCCC[C@@H]1NC(=O)[C@H](Cc2c[nH]c3c(C)cccc23)NC(=O)[C@H]([C@@H](C)O)NC(=O)[C@H](CC(N)=O)NC(=O)[C@@H](NC(=O)[C@@H](CCCNC(=N)N)NC(C)=O)C(C)(C)SSC(C)(C)[C@@H](C(=O)N[C@@H](Cc2ccc(OCCN)cc2)C(=O)N[C@@H](Cc2ccc3ccccc3c2)C(=O)NC2(C(=O)N[C@@H](CCC(=O)O)C(=O)N[C@@H](CC(N)=O)C(=O)NC3(C(N)=O)CCOCC3)CCOCC2)NC1=O
With B2, in experiment [1], the “PBMC pSTAT3 IC50 (nM)” value came out at 3.3 nM and the “pStat3 HTRF (nM), IC50” value was 0.206 nM. Also, in experiment [2], the “NK Cell Assay (nM), IC50, IFN-gamma” value was 1.46 nM.

B3: Compound No. 64 (peptide)
peptide: Ac-[Abu]QT[Trp(7-Me)]K(Ac)C[AEF][2Nal][αMeK]K(Ac)N[dK]-NH2
modifications: thioether 1-6
Consider B3, for which the “pStat3 HTRF (nM), IC50” value in experiment [1] is 0.889 nM. In addition, the “NK Cell Assay (nM), IC50, IFN-gamma” value in experiment [2] was 5.44 nM.

B4: Compound No. 10 (peptide)
peptide: Propionyl-[dR][Pen]QTWQ[Pen][AEF][2Nal][Thp]EN[Thp]-NH2
modifications: disulfide 2-7
SMILES: CCC(=O)N[C@H](CCCNC(=N)N)C(=O)N[C@@H]1C(=O)N[C@@H](CCC(N)=O)C(=O)N[C@@H]([C@@H](C)O)C(=O)N[C@@H](Cc2c[nH]c3ccccc23)C(=O)N[C@@H](CCC(N)=O)C(=O)N[C@H](C(=O)N[C@@H](Cc2ccc(OCCN)cc2)C(=O)N[C@@H](Cc2ccc3ccccc3c2)C(=O)NC2(C(=O)N[C@@H](CCC(=O)O)C(=O)N[C@@H](CC(N)=O)C(=O)NC3(C(N)=O)CCOCC3)CCOCC2)C(C)(C)SSC1(C)C
For B4, in experiment [1], the “PBMC pSTAT3 IC50 (nM)” value turned out to be 4.6 nM and the “pStat3 HTRF (nM), IC50” value came to 4.16 nM. The “NK Cell Assay (nM), IC50, IFN-gamma” value in experiment [2] was 8.29 nM.

B5: Compound No. 76 (peptide)
peptide: Ac-[Pen]NT[Trp(7-Me)]K(Ac)[Pen][AEF][2Nal][αMeK]K(Ac)N[αMeF]-NH2
modifications: disulfide 1-6
SMILES: CC(=O)NCCCC[C@@H]1NC(=O)[C@H](Cc2c[nH]c3c(C)cccc23)NC(=O)[C@H]([C@@H](C)O)NC(=O)[C@H](CC(N)=O)NC(=O)[C@@H](NC(C)=O)C(C)(C)SSC(C)(C)[C@@H](C(=O)N[C@@H](Cc2ccc(OCCN)cc2)C(=O)N[C@@H](Cc2ccc3ccccc3c2)C(=O)N[C@@](C)(CCCCN)C(=O)N[C@@H](CCCCNC(C)=O)C(=O)N[C@@H](CC(N)=O)C(=O)N[C@@](C)(Cc2ccccc2)C(N)=O)NC1=O
In the case of B5, in experiment [1], the “PBMC pSTAT3 IC50 (nM)” value turned out to be 11 nM and the “pStat3 HTRF (nM), IC50” value amounted to 1.5 nM. Moreover, the “NK Cell Assay (nM), IC50, IFN-gamma” value in experiment [2] is 4.01 nM.

B6: Compound No. 77 (peptide)
peptide: Ac-[dR][Pen]NT[Trp(7-Me)]K(Ac)[Pen][AEF][2Nal][Thp]EN[αMeF]-NH2
modifications: disulfide 2-7
SMILES: CC(=O)NCCCC[C@@H]1NC(=O)[C@H](Cc2c[nH]c3c(C)cccc23)NC(=O)[C@H]([C@@H](C)O)NC(=O)[C@H](CC(N)=O)NC(=O)[C@@H](NC(=O)[C@@H](CCCNC(=N)N)NC(C)=O)C(C)(C)SSC(C)(C)[C@@H](C(=O)N[C@@H](Cc2ccc(OCCN)cc2)C(=O)N[C@@H](Cc2ccc3ccccc3c2)C(=O)NC2(C(=O)N[C@@H](CCC(=O)O)C(=O)N[C@@H](CC(N)=O)C(=O)N[C@@](C)(Cc3ccccc3)C(N)=O)CCOCC2)NC1=O
Regarding B6, in experiment [1], the “PBMC pSTAT3 IC50 (nM)” value stood at 6.4 nM and the “pStat3 HTRF (nM), IC50” value was 0.353 nM. Further, the “NK Cell Assay (nM), IC50, IFN-gamma” value in experiment [2] came out at 2.33 nM.

B7: Compound No. 9 (peptide)
peptide: [dR][Pen]QTWQ[Pen][AEF][2Nal][Thp]EN[Thp]-NH2
modifications: disulfide 2-7; not fully specified (N-terminus)
Consider B7, for which, in experiment [1], the “PBMC pSTAT3 IC50 (nM)” value is 29 nM and the “pStat3 HTRF (nM), IC50” value was found to be 3.12 nM. Moreover, the “NK Cell Assay (nM), IC50, IFN-gamma” value in experiment [2] amounted to 11.6 nM.

B8: Compound No. 5 (peptide)
peptide: {Propanoyl(3,3,3-F3)}-[dR][Pen]QTWQ[Pen][AEF][2Nal][Thp]EN[Thp]-NH2
modifications: disulfide 2-7
SMILES: C[C@@H](O)[C@@H]1NC(=O)[C@H](CCC(N)=O)NC(=O)[C@@H](NC(=O)[C@@H](CCCNC(=N)N)NC(=O)CC(F)(F)F)C(C)(C)SSC(C)(C)[C@@H](C(=O)N[C@@H](Cc2ccc(OCCN)cc2)C(=O)N[C@@H](Cc2ccc3ccccc3c2)C(=O)NC2(C(=O)N[C@@H](CCC(=O)O)C(=O)N[C@@H](CC(N)=O)C(=O)NC3(C(N)=O)CCOCC3)CCOCC2)NC(=O)[C@H](CCC(N)=O)NC(=O)[C@H](Cc2c[nH]c3ccccc23)NC1=O
For the molecule B8, in experiment [1], the “PBMC pSTAT3 IC50 (nM)” value came out at 4.7 nM and the “pStat3 HTRF (nM), IC50” value turned out to be 2.94 nM. In experiment [2], the “NK Cell Assay (nM), IC50, IFN-gamma” value worked out at 10.3 nM.

B9: Compound No. 4 (peptide)
peptide: Propionyl-[dR][Pen]QTWQ[Pen][Phe(4-OMe)][2Nal][Thp]EN[Thp]-NH2
modifications: disulfide 2-7
SMILES: CCC(=O)N[C@H](CCCNC(=N)N)C(=O)N[C@@H]1C(=O)N[C@@H](CCC(N)=O)C(=O)N[C@@H]([C@@H](C)O)C(=O)N[C@@H](Cc2c[nH]c3ccccc23)C(=O)N[C@@H](CCC(N)=O)C(=O)N[C@H](C(=O)N[C@@H](Cc2ccc(OC)cc2)C(=O)N[C@@H](Cc2ccc3ccccc3c2)C(=O)NC2(C(=O)N[C@@H](CCC(=O)O)C(=O)N[C@@H](CC(N)=O)C(=O)NC3(C(N)=O)CCOCC3)CCOCC2)C(C)(C)SSC1(C)C
With B9, the “pStat3 HTRF (nM), IC50” value in experiment [1] is 4.17 nM. In experiment [2], the “NK Cell Assay (nM), IC50, IFN-gamma” value amounted to 32.1 nM.

B10: Compound No. 75 (peptide)
peptide: Ac-[Pen]NT[Trp(7-Me)]K(Ac)[Pen][AEF][2Nal][αMeK]K(Ac)N[Thp]-NH2
modifications: disulfide 1-6
SMILES: CC(=O)NCCCC[C@@H]1NC(=O)[C@H](Cc2c[nH]c3c(C)cccc23)NC(=O)[C@H]([C@@H](C)O)NC(=O)[C@H](CC(N)=O)NC(=O)[C@@H](NC(C)=O)C(C)(C)SSC(C)(C)[C@@H](C(=O)N[C@@H](Cc2ccc(OCCN)cc2)C(=O)N[C@@H](Cc2ccc3ccccc3c2)C(=O)N[C@@](C)(CCCCN)C(=O)N[C@@H](CCCCNC(C)=O)C(=O)N[C@@H](CC(N)=O)C(=O)NC2(C(N)=O)CCOCC2)NC1=O
Consider B10, for which, in experiment [1], the “PBMC pSTAT3 IC50 (nM)” value is 8.9 nM and the “pStat3 HTRF (nM), IC50” value came to 0.787 nM. For the same molecule, in experiment [2], the “NK Cell Assay (nM), IC50, IFN-gamma” value is 2.69 nM.

B11: Compound No. 66 (peptide)
peptide: Ac-[Abu]QT[Trp(7-Me)]K(Ac)C[AEF][2Nal][αMeK]K(Ac)N[αMeF]-NH2
modifications: thioether 1-6
As for B11, in experiment [1], the “pStat3 HTRF (nM), IC50” value was found to be 2.27 nM. Besides, the “NK Cell Assay (nM), IC50, IFN-gamma” value in experiment [2] worked out at 13.1 nM.

B12: Compound No. 65 (peptide)
peptide: Ac-[Abu]QT[Trp(7-Me)]K(Ac)C[AEF][2Nal][αMeK]K(Ac)N[dL]-NH2
modifications: thioether 1-6
For the molecule B12, the “pStat3 HTRF (nM), IC50” value in experiment [1] amounted to 0.966 nM. For the same molecule, in experiment [2], the “NK Cell Assay (nM), IC50, IFN-gamma” value was 6.03 nM.
